Non-standard residues stand in square brackets, D forms with d. No end group written: not given here.
Each binder was assayed against T1, Interleukin-1 receptor accessory protein (IL-1RacP), on A549 carcinoma cells (human, UniProt Q9NPH3 21-570) (assay: cell-based or functional assay).
T1 sequence (looked up): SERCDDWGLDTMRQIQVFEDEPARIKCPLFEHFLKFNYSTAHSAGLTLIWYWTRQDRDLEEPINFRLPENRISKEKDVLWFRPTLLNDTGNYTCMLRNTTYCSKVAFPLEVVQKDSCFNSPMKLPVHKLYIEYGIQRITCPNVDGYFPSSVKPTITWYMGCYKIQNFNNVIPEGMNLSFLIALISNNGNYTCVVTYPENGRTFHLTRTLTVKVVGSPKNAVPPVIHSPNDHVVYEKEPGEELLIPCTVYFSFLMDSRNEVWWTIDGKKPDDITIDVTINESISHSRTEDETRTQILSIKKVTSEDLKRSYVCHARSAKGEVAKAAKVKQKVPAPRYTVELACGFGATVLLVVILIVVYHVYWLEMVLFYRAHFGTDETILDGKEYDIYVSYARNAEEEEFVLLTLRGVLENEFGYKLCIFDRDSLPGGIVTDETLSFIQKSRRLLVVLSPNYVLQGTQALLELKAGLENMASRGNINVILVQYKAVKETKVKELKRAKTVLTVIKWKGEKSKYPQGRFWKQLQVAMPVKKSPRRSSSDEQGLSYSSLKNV

Point of comparison: MKLPVHKLY [API-103], “IL-1 induced proliferation in A549 carcinoma cells, 3H-thymidine incorporation” value 1000 nM. Against it:
- VGSPKNAVPPV [API-106] — 10-fold higher, 10000 nM
- APRYTVELA [API-101] — the same, 1000 nM

These binders were tested against Insulin-like growth factor-1 receptor (IGF-1R) (human, UniProt P08069 31-1367) (assay: cell-based or functional assay).
Chain of Insulin-like growth factor-1 receptor (IGF-1R) (P08069 31-1367): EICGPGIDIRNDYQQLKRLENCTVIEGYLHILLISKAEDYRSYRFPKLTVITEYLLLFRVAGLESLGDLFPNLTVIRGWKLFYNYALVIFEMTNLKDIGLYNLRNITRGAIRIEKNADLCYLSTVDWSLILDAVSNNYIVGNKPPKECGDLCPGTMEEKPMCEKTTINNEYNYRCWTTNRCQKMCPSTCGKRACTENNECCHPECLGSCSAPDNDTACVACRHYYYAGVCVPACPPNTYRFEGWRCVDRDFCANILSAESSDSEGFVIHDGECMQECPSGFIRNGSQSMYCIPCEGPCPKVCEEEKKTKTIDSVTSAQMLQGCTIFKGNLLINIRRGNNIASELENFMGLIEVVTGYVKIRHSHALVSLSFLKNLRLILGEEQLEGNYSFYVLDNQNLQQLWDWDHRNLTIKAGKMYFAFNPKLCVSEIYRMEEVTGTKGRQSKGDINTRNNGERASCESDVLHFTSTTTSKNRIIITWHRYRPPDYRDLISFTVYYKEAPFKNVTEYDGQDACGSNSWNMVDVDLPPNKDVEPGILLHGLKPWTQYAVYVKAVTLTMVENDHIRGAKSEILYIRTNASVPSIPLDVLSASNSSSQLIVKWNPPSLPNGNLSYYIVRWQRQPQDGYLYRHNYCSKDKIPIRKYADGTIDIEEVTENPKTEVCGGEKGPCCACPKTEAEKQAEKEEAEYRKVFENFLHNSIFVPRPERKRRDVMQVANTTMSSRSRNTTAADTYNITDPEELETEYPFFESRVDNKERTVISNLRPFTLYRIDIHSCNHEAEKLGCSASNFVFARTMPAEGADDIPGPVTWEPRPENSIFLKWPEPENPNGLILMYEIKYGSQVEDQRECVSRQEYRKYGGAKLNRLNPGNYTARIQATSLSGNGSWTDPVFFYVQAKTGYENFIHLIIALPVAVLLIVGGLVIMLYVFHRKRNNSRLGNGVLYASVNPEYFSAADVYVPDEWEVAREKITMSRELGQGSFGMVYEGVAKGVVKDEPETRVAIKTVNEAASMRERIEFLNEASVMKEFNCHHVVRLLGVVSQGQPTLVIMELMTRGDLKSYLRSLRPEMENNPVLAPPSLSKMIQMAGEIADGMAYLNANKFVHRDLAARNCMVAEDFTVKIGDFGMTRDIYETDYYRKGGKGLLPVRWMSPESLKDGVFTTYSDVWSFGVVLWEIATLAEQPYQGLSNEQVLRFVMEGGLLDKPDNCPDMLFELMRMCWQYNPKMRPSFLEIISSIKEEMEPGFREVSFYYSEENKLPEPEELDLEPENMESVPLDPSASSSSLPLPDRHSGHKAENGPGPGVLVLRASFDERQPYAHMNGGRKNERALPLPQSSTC

Point of comparison: [dS][dL][dF][dV][dP][dR][dP][dE][dR][dK] [APG-201], “IGF-1 induced proliferation in A549 carcinoma cells, 3H-thymidine incorporation” value 1000 nM. Against it:
- [dL][dR][dK][dY][dA][dD]G[dT][dL] [APG-204] — 100-fold lower, 10 nM
- [dE][dS][dD][dV][dL][dH][dF][dT][dS][dT] [APG-202] — 100-fold lower, 10 nM
